Experimental data as given in patent publication US20220372155A1 (LYVGEN BIOPHARMA, published 2022).

B1: Ly819 (bispecific antibody, human IgG1, kappa)
heavy: QVTLKESGPALVKPTQTLTLTCTFSGFSLSTSGTCVSWIRQPPGKALEWLATICWEDSKGYNPSLKSRLTISKDTSKNQAVLTMTNMDPVDTATYYCARREDSGYFWFPYWGQGTLVTVSSASTKGPSVFPLAPSSKSTSGGTAALGCLVKDYFPEPVTVSWNSGALTSGVHTFPAVLQSSGLYSLSSVVTVPSSSLGTQTYICNVNHKPSNTKVDKKVEPKSCDKTHTCPPCPAPELLGPSVFLFPPKPKDTLMISRTPEVTCVVVDVSHEDPEVKFNWYVDGVEVHNAKTKPREEQYNSTYRVVSVLTVLHQDWLNGKEYKCKVSNKALPAPIEKTISKAKGQPREPQVYTLPPSREEMTKNQVSLTCLVKGFYPSDIAVEWESNGQPENNYKTTPPVLDSDGSFFLYSKLTVDKSRWQQGNVFSCSVMHEALHNHYTQKSLSLSPGK
light: NIQMTQSPSSLSASVGDRVTITCKAGQNVNNYLAWYQQKPGKAPKVLIFNANSLQTGVPSRFSGSGSGTDFTLTISSLQPEDFATYYCQQYNSWPTFGGGTKVEIKRTVAAPSVFIFPPSDEQLKSGTASVVCLLNNFYPREAKVQWKVDNALQSGNSQESVTEQDSKDSTYSLSSTLTLSKADYEKHKVYACEVTHQGLSSPVTKSFNRGECGGGGSGGGGSGGGGSGGGGSDIQMTQSPSSLSASVGDRVTITCLASEDISNDLAWYQQKPGKAPKLLIYFVDRLLDGVPSRFSGSGSGTDFTLTISSLQPEDFATYYCQQSYKYPPTFGQGTKLEIKGGGGSGGGGSGGGGSGGGGSEVQLVESGGGLVQPGGSLRLSCAASGFTFTNYGLHWVRQAPGKGLEWVSSISPSGGVTYYRDSVKGRFTISRDNSKNTLYLQMNSLRAEDTAVYYCAKPFLGWGGANWIAHWGQGTLVTVSS
notes: Ly516 HC (IgG1 mutated Fc) + Ly516 LC-TM559 scFv VL-VH
B2: Ly820 (bispecific antibody, human IgG1, kappa)
heavy: B1 heavy
light: NIQMTQSPSSLSASVGDRVTITCKAGQNVNNYLAWYQQKPGKAPKVLIFNANSLQTGVPSRFSGSGSGTDFTLTISSLQPEDFATYYCQQYNSWPTFGGGTKVEIKRTVAAPSVFIFPPSDEQLKSGTASVVCLLNNFYPREAKVQWKVDNALQSGNSQESVTEQDSKDSTYSLSSTLTLSKADYEKHKVYACEVTHQGLSSPVTKSFNRGECGGGGSGGGGSGGGGSGGGGSEVQLVESGGGLVQPGGSLRLSCAASGFTFTNYGLHWVRQAPGKGLEWVSSISPSGGVTYYRDSVKGRFTISRDNSKNTLYLQMNSLRAEDTAVYYCAKPFLGWGGANWIAHWGQGTLVTVSSGGGGSGGGGSGGGGSGGGGSDIQMTQSPSSLSASVGDRVTITCLASEDISNDLAWYQQKPGKAPKLLIYFVDRLLDGVPSRFSGSGSGTDFTLTISSLQPEDFATYYCQQSYKYPPTFGQGTKLEIK
notes: Ly516 HC (IgG1 mutated Fc) + Ly516 LC-TM559 scFv VH-VL
B3: Ly343 (bispecific antibody, human IgG1, kappa)
heavy: QVQLVQSGAEVKKPGASVKVSCKASGYTFTDFWMSWVRQAPGQGLEWMGQIYPNTGTTHSNEKFKGRVTMTRDTSTSTVYMELSSLRSEDTAVYYCARSYHISTTPNWFAYWGQGTLVTVSSASTKGPSVFPLAPSSKSTSGGTAALGCLVKDYFPEPVTVSWNSGALTSGVHTFPAVLQSSGLYSLSSVVTVPSSSLGTQTYICNVNHKPSNTKVDKKVEPKSCDKTHTCPPCPAPELLGPSVFLFPPKPKDTLMISRTPEVTCVVVDVSHEDPEVKFNWYVDGVEVHNAKTKPREEQYNSTYRVVSVLTVLHQDWLNGKEYKCKVSNKALPAPIEKTISKAKGQPREPQVYTLPPSREEMTKNQVSLTCLVKGFYPSDIAVEWESNGQPENNYKTTPPVLDSDGSFFLYSKLTVDKSRWQQGNVFSCSVMHEALHNHYTQKSLSLSPG
light: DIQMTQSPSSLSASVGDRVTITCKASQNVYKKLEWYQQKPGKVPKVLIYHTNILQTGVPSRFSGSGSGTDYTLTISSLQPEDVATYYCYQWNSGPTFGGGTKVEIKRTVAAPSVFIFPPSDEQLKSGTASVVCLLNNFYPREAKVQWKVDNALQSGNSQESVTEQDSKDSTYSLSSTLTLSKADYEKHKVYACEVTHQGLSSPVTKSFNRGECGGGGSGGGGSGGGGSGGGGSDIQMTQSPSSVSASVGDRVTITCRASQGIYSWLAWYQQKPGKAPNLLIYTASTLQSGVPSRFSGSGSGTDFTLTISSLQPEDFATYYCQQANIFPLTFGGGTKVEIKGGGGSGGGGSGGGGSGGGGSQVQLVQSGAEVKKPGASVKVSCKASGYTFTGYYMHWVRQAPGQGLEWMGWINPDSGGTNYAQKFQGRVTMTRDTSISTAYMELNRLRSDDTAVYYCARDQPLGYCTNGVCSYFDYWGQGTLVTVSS
notes: Ly076 HC (IgG1 mutated Fc) + Ly076 LC-Ly253 scFv VL-VH
B4: Ly345 (bispecific antibody, human IgG1, kappa)
heavy: B3 heavy
light: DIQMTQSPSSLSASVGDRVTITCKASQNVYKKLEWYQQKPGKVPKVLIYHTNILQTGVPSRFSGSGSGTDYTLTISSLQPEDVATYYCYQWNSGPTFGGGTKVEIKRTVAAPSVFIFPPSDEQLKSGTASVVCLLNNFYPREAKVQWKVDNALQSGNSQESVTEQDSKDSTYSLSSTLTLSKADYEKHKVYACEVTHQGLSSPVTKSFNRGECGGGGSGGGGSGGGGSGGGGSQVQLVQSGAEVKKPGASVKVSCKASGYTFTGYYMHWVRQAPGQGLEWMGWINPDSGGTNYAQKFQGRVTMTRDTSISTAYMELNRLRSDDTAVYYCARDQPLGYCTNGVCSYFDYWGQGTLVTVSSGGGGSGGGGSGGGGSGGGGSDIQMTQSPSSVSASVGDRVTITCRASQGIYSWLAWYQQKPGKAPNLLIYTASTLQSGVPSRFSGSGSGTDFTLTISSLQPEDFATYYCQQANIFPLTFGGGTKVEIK
notes: Ly076 HC (IgG1 mutated Fc) + Ly076 LC-Ly253 scFv VH-VL
B5: Ly342 (bispecific antibody, human IgG1, kappa)
heavy: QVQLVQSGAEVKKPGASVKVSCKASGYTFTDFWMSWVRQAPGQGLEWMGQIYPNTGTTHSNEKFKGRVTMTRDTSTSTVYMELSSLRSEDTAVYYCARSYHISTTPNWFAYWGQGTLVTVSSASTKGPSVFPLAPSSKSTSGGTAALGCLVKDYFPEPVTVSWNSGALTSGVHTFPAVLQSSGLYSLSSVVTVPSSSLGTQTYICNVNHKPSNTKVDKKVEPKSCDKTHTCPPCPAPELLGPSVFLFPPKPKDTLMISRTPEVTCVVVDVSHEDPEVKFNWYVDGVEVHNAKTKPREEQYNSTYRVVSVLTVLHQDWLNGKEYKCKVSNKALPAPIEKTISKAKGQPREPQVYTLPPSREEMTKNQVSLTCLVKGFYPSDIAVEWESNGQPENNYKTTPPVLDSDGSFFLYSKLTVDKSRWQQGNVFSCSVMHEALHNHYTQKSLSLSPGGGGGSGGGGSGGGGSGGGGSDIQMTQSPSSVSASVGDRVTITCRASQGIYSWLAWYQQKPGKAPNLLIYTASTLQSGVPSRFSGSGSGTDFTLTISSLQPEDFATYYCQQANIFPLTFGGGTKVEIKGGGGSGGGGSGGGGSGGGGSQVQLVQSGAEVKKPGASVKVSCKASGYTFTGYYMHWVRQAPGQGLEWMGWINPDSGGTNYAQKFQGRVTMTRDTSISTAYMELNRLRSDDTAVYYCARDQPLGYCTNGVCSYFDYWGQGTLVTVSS
light: DIQMTQSPSSLSASVGDRVTITCKASQNVYKKLEWYQQKPGKVPKVLIYHTNILQTGVPSRFSGSGSGTDYTLTISSLQPEDVATYYCYQWNSGPTFGGGTKVEIKRTVAAPSVFIFPPSDEQLKSGTASVVCLLNNFYPREAKVQWKVDNALQSGNSQESVTEQDSKDSTYSLSSTLTLSKADYEKHKVYACEVTHQGLSSPVTKSFNRGEC
notes: Ly076 HC (IgG1 mutated Fc)-Ly253 scFv VL-VH + Ly076 LC
B6: Ly344 (bispecific antibody, human IgG1, kappa)
heavy: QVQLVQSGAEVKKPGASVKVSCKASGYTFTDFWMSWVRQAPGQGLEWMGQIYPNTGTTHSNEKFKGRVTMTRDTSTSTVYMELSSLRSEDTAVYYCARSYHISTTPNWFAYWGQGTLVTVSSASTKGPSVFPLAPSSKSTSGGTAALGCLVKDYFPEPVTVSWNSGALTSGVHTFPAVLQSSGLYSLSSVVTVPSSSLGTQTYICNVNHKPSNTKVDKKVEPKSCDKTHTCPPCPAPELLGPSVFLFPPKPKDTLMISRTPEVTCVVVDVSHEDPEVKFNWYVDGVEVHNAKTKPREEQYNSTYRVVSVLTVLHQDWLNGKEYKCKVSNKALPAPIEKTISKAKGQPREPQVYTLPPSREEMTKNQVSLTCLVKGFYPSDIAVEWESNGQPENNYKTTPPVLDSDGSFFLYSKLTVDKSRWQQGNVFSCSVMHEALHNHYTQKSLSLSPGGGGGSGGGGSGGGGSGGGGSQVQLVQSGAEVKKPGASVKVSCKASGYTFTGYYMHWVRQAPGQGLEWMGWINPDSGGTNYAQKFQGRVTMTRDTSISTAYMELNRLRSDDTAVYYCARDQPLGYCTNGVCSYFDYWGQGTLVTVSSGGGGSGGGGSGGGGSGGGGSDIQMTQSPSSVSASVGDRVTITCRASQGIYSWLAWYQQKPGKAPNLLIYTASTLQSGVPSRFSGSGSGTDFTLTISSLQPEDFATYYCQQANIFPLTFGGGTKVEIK
light: B5 light
notes: Ly076 HC (IgG1 mutated Fc)-Ly253 scFv VH-VL + Ly076 LC

Target: T1, human PD-1 expressed on CHO cells (human, UniProt Q15116 25-288)
T1 construct: whole, on cells; also used for human PD-1 on Jurkat reporter cells; also called Jurkat/NFkB-Luci/PD-1 cells
T1 sequence (Q15116 25-288): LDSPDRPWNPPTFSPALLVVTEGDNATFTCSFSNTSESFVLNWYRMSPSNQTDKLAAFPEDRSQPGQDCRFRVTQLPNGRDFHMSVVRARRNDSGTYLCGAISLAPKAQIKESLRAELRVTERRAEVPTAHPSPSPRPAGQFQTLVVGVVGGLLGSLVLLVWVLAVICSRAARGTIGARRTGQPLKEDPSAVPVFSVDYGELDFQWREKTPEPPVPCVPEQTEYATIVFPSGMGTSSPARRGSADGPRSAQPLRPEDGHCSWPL
Assay: FACS, CHO cells

Binding result, binds:
B1
B2

Target: T2, human CD40 expressed on CHO cells (human, UniProt P25942 21-277)
T2 construct: whole, on cells; also used for the reporter cells over-expressing human CD40; also called cellular CD40; CHO-CD40 cells
T2 sequence (P25942 21-277): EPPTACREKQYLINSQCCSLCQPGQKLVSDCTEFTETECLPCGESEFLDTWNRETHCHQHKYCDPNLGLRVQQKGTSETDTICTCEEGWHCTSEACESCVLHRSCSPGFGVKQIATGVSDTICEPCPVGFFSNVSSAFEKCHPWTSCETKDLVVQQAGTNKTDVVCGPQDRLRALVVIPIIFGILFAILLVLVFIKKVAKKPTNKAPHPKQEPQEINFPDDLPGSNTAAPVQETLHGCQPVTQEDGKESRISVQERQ
Assay: FACS, CHO cells

Binding result, binds:
B3
B4
B5
B6
B1
B2

Target: T3, Ly090 (human CD40 ECD protein with His tag) (human, UniProt P25942 21-193)
T3 construct: extracellular domain; also called human CD40 ECD protein (His tag); recombinant human CD40; not shown: His tag
T3 sequence (P25942 21-193): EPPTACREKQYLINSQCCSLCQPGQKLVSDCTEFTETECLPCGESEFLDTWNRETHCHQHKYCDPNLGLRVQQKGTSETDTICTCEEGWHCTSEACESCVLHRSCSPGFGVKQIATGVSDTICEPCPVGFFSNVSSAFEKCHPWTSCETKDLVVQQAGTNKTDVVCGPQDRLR
Assay: bridging ELISA, coated CD40 ECD-His, soluble PD-L1 ECD-mFc
Procedure: Exemplary anti-PD-L1/CD40 bi-specific antibodies were analyzed by ELISA for their simultaneous binding to recombinant human PD-L1 and human CD40. Briefly, Ly090 (human CD40 ECD protein with His tag) was diluted and coated onto an ELISA plate with a volume of 100 μL/well by incubation at 4° C. overnight. The next day, the plate was blocked by PBST-BSA buffer, then serially diluted samples of anti-PD-L1/CD40 bi-specific antibodies were pipetted into appropriate wells at 50 μL/well, and the plate was incubated for 1 h followed by Washing. Human PD-L1 ECD protein (mouse IgG2a Fc tag) was added into the plate at 50 μL/well. After 1-hour incubation at room temperature, HRP-conjugated anti-Mouse IgG, Fc G2a antibody was added into the plate at 100 μL/well. The plate was incubated for 1 hour at room temperature followed by washing. TMB substrate solution was added at 100 μL/well and the color development was stopped by adding 100 uL/well Stop Solution (2N H₂SO₄). Absorbance at 450 nm and 620 nm was read by Tecan F200 Pro plate reader. GraphPad 7.0, “[Agonist] vs. response—Variable slope (four parameters)” was used to plot the binding data and calculate binding EC50 values.

Binding result, binds:
B3
B4
B5
B6
